± gives the standard deviation of the averaged measurements.
Assay: total protein half-life in vivo (active degradation + dilution); higher = more stable protein
[1] = E. coli NCM3722 delta-clpP delta-lon delta-hslV, growth: N-lim chemostat, doubling time 6 h
[2] = E. coli NCM3722 delta-clpP, growth: N-lim chemostat, doubling time 6 h
[3] = E. coli NCM3722 delta-hslV, growth: N-lim chemostat, doubling time 6 h
[4] = E. coli NCM3722 delta-lon, growth: N-lim chemostat, doubling time 6 h
[5] = E. coli NCM3722 delta-smpB, growth: N-lim chemostat, doubling time 6 h
[6] = wild type E. coli NCM3722, growth: C-lim chemostat, doubling time 3 h
[7] = wild type E. coli NCM3722, growth: C-lim chemostat, doubling time 6 h
[8] = wild type E. coli NCM3722, growth: C-lim chemostat, doubling time 12 h
[9] = wild type E. coli NCM3722, growth: N-lim chemostat, doubling time 6 h
[10] = wild type E. coli NCM3722, growth: N-lim chemostat, doubling time 12 h
[11] = wild type E. coli NCM3722, growth: P-lim chemostat, doubling time 6 h
[12] = wild type E. coli NCM3722, growth: P-lim chemostat, doubling time 12 h

MKVLTVFGTRPEAIKMAPLVHALAKDPFFEAKVCVTAQHREMLDQVLKLFSIVPDYDLNIMQPGQGLTEITCRILEGLKPILAEFKPDVVLVHGDTTTTLATSLAAFYQRIPVGHVEAGLRTGDLYSPWPEEANRTLTGHLAMYHFSPTETSRQNLLRENVADSRIFITGNTVIDALLWVRDQVMSSDKLRSELAANYPFIDPDKKMILVTGHRRESFGRGFEEICHALADIATTHQDIQIVYPVHLNPNVREPVNRILGHVKNVILIDPQEYLPFVWLMNHAWLILTDSGGIQEEAPSLGKPVLVMRDTTERPEAVTAGTVRLVGTDKQRIVEEVTRLLKDENEYQAMSRAHNPYGDGQACSRILEALKNNRISL
total protein half-life in vivo [1]: 4.18 ± 0.042 h | total protein half-life in vivo [2]: 4.52 ± 0.26 h | total protein half-life in vivo [3]: 4.56 ± 0.14 h | total protein half-life in vivo [4]: 4.96 ± 0.82 h | total protein half-life in vivo [5]: 3.55 ± 0.33 h | total protein half-life in vivo [6]: 3.23 ± 0.27 h | total protein half-life in vivo [7]: 5.8 ± 0.64 h | total protein half-life in vivo [8]: 10.5 ± 2.5 h | total protein half-life in vivo [9]: 4.16 ± 0.4 h | total protein half-life in vivo [10]: 8.18 ± 0.94 h | total protein half-life in vivo [11]: 6.17 ± 0.78 h | total protein half-life in vivo [12]: 10.1 ± 1.9 h

MKVLVIGNGGREHALAWKAAQSPLVETVFVAPGNAGTALEPALQNVAIGVTDIPALLDFAQNEKIDLTIVGPEAPLVKGVVDTFRAAGLKIFGPTAGAAQLEGSKAFTKDFLARHKIPTAEYQNFTEVEPALAYLREKGAPIVIKADGLAAGKGVIVAMTLEEAEAAVHDMLAGNAFGDAGHRIVIEEFLDGEEASFIVMVDGEHVLPMATSQDHKRVGDKDTGPNTGGMGAYSPAPVVTDDVHQRTMERIIWPTVKGMAAEGNTYTGFLYAGLMIDKQGNPKVIEFNCRFGDPETQPIMLRMKSDLVELCLAACESKLDEKTSEWDERASLGVVMAAGGYPGDYRTGDVIHGLPLEEVAGGKVFHAGTKLADDEQVVTNGGRVLCVTALGHTVAEAQKRAYALMTDIHWDDCFCRKDIGWRAIEREQN
total protein half-life in vivo [1]: 5.13 ± 0.32 h | total protein half-life in vivo [2]: 4.89 ± 0.38 h | total protein half-life in vivo [3]: 4.3 ± 0.28 h | total protein half-life in vivo [4]: 4.91 ± 0.24 h | total protein half-life in vivo [5]: 4.44 ± 0.17 h | total protein half-life in vivo [6]: 3.38 ± 0.24 h | total protein half-life in vivo [7]: 6.37 ± 0.4 h | total protein half-life in vivo [8]: 10.5 ± 0.14 h | total protein half-life in vivo [9]: 4.62 ± 0.25 h | total protein half-life in vivo [10]: 7.03 ± 0.35 h | total protein half-life in vivo [11]: 6.097 ± 0.048 h | total protein half-life in vivo [12]: 12.7 ± 0.7 h

MKVMRTTVATVVAATLSMSAFSVFAEASLTGAGATFPAPVYAKWADTYQKETGNKVNYQGIGSSGGVKQIIANTVDFGASDAPLSDEKLAQEGLFQFPTVIGGVVLAVNIPGLKSGELVLDGKTLGDIYLGKIKKWDDEAIAKLNPGLKLPSQNIAVVRRADGSGTSFVFTSYLAKVNEEWKNNVGTGSTVKWPIGLGGKGNDGIAAFVQRLPGAIGYVEYAYAKQNNLAYTKLISADGKPVSPTEENFANAAKGADWSKTFAQDLTNQKGEDAWPITSTTFILIHKDQKKPEQGTEVLKFFDWAYKTGAKQANDLDYASLPDSVVEQVRAAWKTNIKDSSGKPLY [P0AG82]
total protein half-life in vivo [1]: 4.1 ± 0.22 h | total protein half-life in vivo [2]: 5.18 ± 0.54 h | total protein half-life in vivo [3]: 6.12 ± 0.3 h | total protein half-life in vivo [4]: 6.31 ± 0.76 h | total protein half-life in vivo [5]: 6.08 ± 0.12 h | total protein half-life in vivo [6]: 3.42 ± 0.057 h | total protein half-life in vivo [7]: 6.04 ± 0.31 h | total protein half-life in vivo [8]: 11.7 ± 0.42 h | total protein half-life in vivo [9]: 6.11 ± 0.43 h | total protein half-life in vivo [10]: 12.9 ± 0.66 h | total protein half-life in vivo [11]: 5.67 ± 0.093 h | total protein half-life in vivo [12]: 11.5 ± 0.23 h

MKVTFEQLKAAFNRVLISRGVDSETADACAEMFARTTESGVYSHGVNRFPRFIQQLENGDIIPDAQPKRITSLGAIEQWDAQRSIGNLTAKKMMDRAIELAADHGIGLVALRNANHWMRGGSYGWQAAEKGYIGICWTNSIAVMPPWGAKECRIGTNPLIVAIPSTPITMVDMSMSMFSYGMLEVNRLAGRQLPVDGGFDDEGNLTKEPGVIEKNRRILPMGYWKGSGMSIVLDMIATLLSDGASVAEVTQDNSDEYGISQIFIAIEVDKLIDGPTRDAKLQRIMDYVTSAERADENQAIRLPGHEFTTLLAENRRNGITVDDSVWAKIQAL
total protein half-life in vivo [6]: 2.77 ± 0.16 h | total protein half-life in vivo [7]: 5.23 ± 0.17 h | total protein half-life in vivo [8]: 9.43 ± 1.9 h

MKVTLPEFERAGVMVVGDVMLDRYWYGPTSRISPEAPVPVVKVNTIEERPGGAANVAMNIASLGANARLVGLTGIDDAARALSKSLADVNVKCDFVSVPTHPTITKLRVLSRNQQLIRLDFEEGFEGVDPQPLHERINQALSSIGALVLSDYAKGALASVQQMIQLARKAGVPVLIDPKGTDFERYRGATLLTPNLSEFEAVVGKCKTEEEIVERGMKLIADYELSALLVTRSEQGMSLLQPGKAPLHMPTQAQEVYDVTGAGDTVIGVLAATLAAGNSLEEACFFANAAAGVVVGKLGTSTVSPIELENAVRGRADTGFGVMTEEELKLAVAAARKRGEKVVMTNGVFDILHAGHVSYLANARKLGDRLIVAVNSDASTKRLKGDSRPVNPLEQRMIVLGALEAVDWVVSFEEDTPQRLIAGILPDLLVKGGDYKPEEIAGSKEVWANGGEVLVLNFEDGCSTTNIIKKIQQDKKG
total protein half-life in vivo [1]: 5.6 ± 0.12 h | total protein half-life in vivo [2]: 5.98 ± 1.2 h | total protein half-life in vivo [3]: 5.19 ± 0.094 h | total protein half-life in vivo [4]: 5.89 ± 0.14 h | total protein half-life in vivo [5]: 5.15 ± 0.11 h | total protein half-life in vivo [6]: 3.1 ± 0.062 h | total protein half-life in vivo [7]: 5.74 ± 0.21 h | total protein half-life in vivo [8]: 11.032 ± 0.011 h | total protein half-life in vivo [9]: 5.3 ± 0.34 h | total protein half-life in vivo [10]: 9.17 ± 0.1 h | total protein half-life in vivo [11]: 5.82 ± 0.12 h | total protein half-life in vivo [12]: 12.3 ± 0.15 h

MKWFNTLSHNRWLEQETDRIFDFGKNSVVPTGFGWLGNKGQIKEEMGTHLWITARMLHVYSVAAAMGRPGAYSLVDHGIKAMNGALRDKKYGGWYACVNDEGVVDASKQGYQHFFALLGAASAVTTGHPEARKLLDYTIEIIEKYFWSEEEQMCLESWDEAFSKTEEYRGGNANMHAVEAFLIVYDVTHDKKWLDRAIRVASVIIHDVARNNHYRVNEHFDTQWNPLPDYNKDNPAHRFRAFGGTPGHWIEWGRLMLHIHAALEARCEQPPAWLLEDAKGLFNATVRDAWAPDGADGIVYTVDWEGKPVVRERVRWPIVEAMGTAYALYTVTGDRQYETWYQTWWEYCIKYLMDYENGSWWQELDADNKVTTKVWDGKQDIYHLLHCLVIPRIPLAPGMAPAVAAGLLDINAK
total protein half-life in vivo [1]: 7.17 h | total protein half-life in vivo [7]: 4.37 h | total protein half-life in vivo [8]: 5.87 h

MKYDLIIIGSGSVGAAAGYYATRAGLNVLMTDAHMPPHQHGSHHGDTRLIRHAYGEGEKYVPLVLRAQTLWDELSRHNEEDPIFVRSGVINLGPADSTFLANVAHSAEQWQLNVEKLDAQGIMARWPEIRVPDNYIGLFETDSGFLRSELAIKTWIQLAKEAGCAQLFNCPVTAIRHDDDGVTIETADGEYQAKKAIVCAGTWVKDLLPELPVQPVRKVFAWYQADGRYSVKNKFPAFTGELPNGDQYYGFPAENDALKIGKHNGGQVIHSADERVPFAEVASDGSEAFPFLRNVLPGIGCCLYGAACTYDNSPDEDFIIDTLPGHDNTLLITGLSGHGFKFASVLGEIAADFAQDKKSDFDLTPFRLSRFQ
total protein half-life in vivo [1]: 4.35 ± 1.2 h | total protein half-life in vivo [2]: 3.046 ± 0.022 h | total protein half-life in vivo [3]: 3.23 ± 0.11 h | total protein half-life in vivo [4]: 3.34 ± 0.26 h | total protein half-life in vivo [5]: 3.1 ± 0.046 h | total protein half-life in vivo [6]: 2.99 ± 0.11 h | total protein half-life in vivo [7]: 5.49 ± 0.24 h | total protein half-life in vivo [8]: 6.92 ± 1.5 h | total protein half-life in vivo [9]: 3.11 ± 0.23 h | total protein half-life in vivo [10]: 5.46 ± 0.065 h | total protein half-life in vivo [11]: 5.55 ± 0.089 h | total protein half-life in vivo [12]: 10.5 ± 0.16 h

From the supplement of paper PMC11246515
